Assays:
[1] = molecular target: AD-CaM (Calmodulin, encoded by the CALM2 gene, fused to the activation domain) (human) (UniProt P0DP24); test: yeast two-hybrid, CPRG β-gal assay, against DB-Q2C wt
[2] = molecular target: AD-CaM (Calmodulin, encoded by the CALM2 gene, fused to the activation domain) (human) (UniProt P0DP24); test: cell-based or functional assay

Sequence of DB-KCNQ2 wild-type (wt) C-term BAIT (O43526 other isoform, or with tags, fused parts or gaps limits assumed): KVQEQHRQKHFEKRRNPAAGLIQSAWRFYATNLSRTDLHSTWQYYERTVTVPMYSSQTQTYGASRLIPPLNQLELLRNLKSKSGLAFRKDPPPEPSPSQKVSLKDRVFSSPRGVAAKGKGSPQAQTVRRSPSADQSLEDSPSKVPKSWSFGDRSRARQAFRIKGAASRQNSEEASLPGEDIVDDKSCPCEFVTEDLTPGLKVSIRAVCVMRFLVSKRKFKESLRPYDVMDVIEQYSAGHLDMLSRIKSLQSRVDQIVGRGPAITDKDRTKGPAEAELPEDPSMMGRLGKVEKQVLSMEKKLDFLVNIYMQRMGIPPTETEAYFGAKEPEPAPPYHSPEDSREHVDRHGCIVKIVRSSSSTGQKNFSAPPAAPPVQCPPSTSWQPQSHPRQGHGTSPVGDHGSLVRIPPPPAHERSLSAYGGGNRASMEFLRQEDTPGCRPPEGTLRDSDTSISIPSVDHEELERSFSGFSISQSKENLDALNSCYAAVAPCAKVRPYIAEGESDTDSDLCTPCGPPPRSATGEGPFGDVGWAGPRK

Row | fold increase in CaM binding affinity against wt [1] | units of β-gal activity (CPRG assay, liquid culture) (units β-gal activity) [2] | Substance
1 | 5 fold | 0.26 | DB-Q2C L619R mutant (from UniProt O43526 319-872)
2 | – | 0.05 | DB-KCNQ2 wild-type (wt) C-term BAIT (from UniProt O43526 319-872)

Source: patent publication US20090081724A1
